Laboratory results from US20060121580A1 (CRUCELL HOLLAND B V, published 2006).

Legend:
[1] = molecular target: S318-510 fragment (amino acids 318-510 of the S protein of SARS-CoV Frankfurt 1), myc-His tagged (SARS-CoV strain Frankfurt 1, UniProt P59594 318-510); assay: IgG ELISA on S318-510 fragment
[2] = molecular target: full length S protein of SARS-CoV expressed on HEK293T cells (SARS-CoV strain Frankfurt 1, UniProt P59594 14-1255); assay: flow cytometry, 10 µg/ml IgG on transfected HEK293T cells
[3] = molecular target: S565 fragment (amino acids 1-565 of the S protein of SARS-CoV), myc-His tagged (SARS-CoV strain Frankfurt 1, UniProt P59594 14-565); assay: IgG ELISA on captured S565

| Binder | binding result [1] | binding result [2] | binding result [3] |
| --- | --- | --- | --- |
| human monoclonal anti-SARS-CoV antibody 03-002 (antibody, V domains shown) VH: EVQLVESGGGLVKPGGSLRLSCAASGFTFSGYSMSWVRQAPGKGLEWVGRTRNKANSYTTEYAASVKGRFTISRDDSKNSLYLQMNSLKTEDTAVYYCARYYSRSLKAFDYWGQGTLVTVSS VL: not shown | no binding |  |  |
| human monoclonal anti-SARS-CoV antibody 03-015 (antibody, V domains shown) VH: EVQLVESGGGVVRPGGSLRLSCAASGFTFDDYGMSWVRQAPGKGLEWVSGINWNGGSTGYADSVKGRFTISRDNAKNSLYLQMNSLRAEDTAVYYCARGLSLRPWGQGTLVTVSS VL: SSELTQDPAESVALGQTVRITCQGDSLRSYYASWYQQKPGQAPVLVIYGKNNRPSGIPDRFSGSSSGNTASLTITGAQAEDEADYYCNSRDSSGNHVVFGGGTKLTVLG | no binding | binds | no binding |
| human monoclonal anti-SARS-CoV antibody 03-006 (antibody, V domains shown) VH: EVQLVESGGGLVQPGGSLRLSCAASGFTFSGYPMHWVRQAPGKGLEWVAVISYDGSNKYYADSVKGRFTISRDNSKNTLYLQMNSLRAEDTAVYYCAKDGSPRTPSFDYWGQGTLVTVSS VL: DIQMTQSPHSLSASVGDRVTITCRASQGISNYLAWYQQKPGKVPKLLIYAASTLQSGVPSRFSGSGSGTDFTLTISSLQPEDVGVYYCQQRFRTPVTFGQGTKLEIKR | binds | binds | binds |
| human monoclonal anti-SARS-CoV antibody 03-001 (antibody, V domains shown) VH: EVQLVESGGGLVKPGGSLRLSCAASGFTFSGYSMNWVRQAPGKGLEWVSSISGGSTYYADSRKGRFTISRDNSKNTLYLQMNNLRAEDTAVYYCARHRFRHVFDYWGQGTLVTVSS VL: not shown | no binding |  |  |
| human monoclonal anti-SARS-CoV antibody 03-013 (antibody, V domains shown) VH: EVQLVESGGGLVQPGGSLRLSCAASGFTFSDHYMDWVRQAPGKGLEWVGRTRNKANSYTTEYAASVKGRFTISRDDSKNSLYLQMNSLKTEDTAVYYCAKGLTPLYFDYWGQGTLVTVSS VL: not shown | binds | binds | binds |
| human monoclonal anti-SARS-CoV antibody 03-014 (antibody, V domains shown) VH: EVQLVESGGGLVQPGGSLRLSCAASGFTFSDHYMDWVRQAPGKGLEWVGRTRNKANSYTTEYAASVKGRFTISRDDSKNSLYLQMNSLKTEDTAVYYCARGISPFYFDYWGQGTLVTVSS VL: not shown | binds |  | binds |
| human monoclonal anti-SARS-CoV antibody 03-009 (antibody, V domains shown) VH: EVQLVESGGGVVQPGRSLRLSCAASGFTFSDYPMNWVRQAPGKGLEWVSSISGSGGSTYYADSVKGRFTISRDNSKNTLYLQMNSLRAEDTAVYYCAKGLFMVTTYAFDYWGQGTLVTVSS VL: not shown | no binding |  |  |
